Source: ChEMBL document CHEMBL4033784, “Discovery of 1,5-Diphenylpyrazole-3-Carboxamide Derivatives as Potent, Reversible, and Selective Monoacylglycerol Lipase (MAGL) Inhibitors” (J Med Chem, 2018)

Substrate: Cc1cccc(Cn2nc(C(=O)N3CCC(Cc4ccccc4)CC3)cc2-c2ccc(O)cc2)c1
Conditions: Homo sapiens
Description: Competitive inhibition of recombinant human MAGL assessed as substrate Km using 4-NPA as substrate after 30 mins by Michaelis-Menten plot analysis

B1: Monoglyceride lipase (Homo sapiens), Q99685 (protein)
chain: MPEESSPRRTPQSIPYQDLPHLVNADGQYLFCRYWKPTGTPKALIFVSHGAGEHSGRYEELARMLMGLDLLVFAHDHVGHGQSEGERMVVSDFHVFVRDVLQHVDSMQKDYPGLPVFLLGHSMGGAIAILTAAERPGHFAGMVLISPLVLANPESATTFKVLAAKVLNLVLPNLSLGPIDSSVLSRNKTEVDIYNSDPLICRAGLKVCFGIQLLNAVSRVERALPKLTVPFLLLQGSADRLCDSKGAYLLMELAKSQDKTLKIYEGAYHVLHKELPEVTNSVFHEINMWVSQRTATAGTASPP
B1 was tested, and the Km was 210 µM.
